Measured values: article PMC2982890 (Biochemistry, 2010)

B1: nuclear coactivator binding domain (NCBD) of CBP (residues 2059–2117) (domain or fragment, mouse, UniProt P45481 2059-2117, looked up)
chain: PPRSISPSALQDLLRTLKSPSSPQQQQQVLNILKSNPQLMAAFIKQRTAKYVANQPGMQ

How the values were obtained:
[1] = biological target: B1; assay: ITC
[2] = biological target: B1; assay: ITC + NMR titration
[3] = biological target: p53(1–61), full-length transactivation domain (TAD) of human p53 (human, UniProt P04637 1-61); assay: ITC + NMR titration

Binder | Kd [1] | dH [1] | fold weaker binding than p53(1–61) [2] | binding result [3]
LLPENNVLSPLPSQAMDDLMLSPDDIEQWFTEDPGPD (domain or fragment, human, UniProt P04637 25-61, looked up) [p53(25–61)] | 5.4 ± 1.8 µM | -4.12 ± 0.46 kcal/mol | 2 to 3 fold | –
LSQETFSDLWKLLPE (peptide, UniProt P04637 14-28, looked up) [p53(14–28), isolated AD1 peptide] | – | – | ~170 fold | –
B1 | – | – | – | binds
